We go through one substance from patent publication US20110281938A1.

In the assay the target is tissue factor:FVIIa complex (TF:FVIIa) (UniProt P13726). Nature of the assay: cell-based or functional assay.
Chain of tissue factor:FVIIa complex (TF:FVIIa) (P13726 33-295 limits assumed, chain 1 of 2): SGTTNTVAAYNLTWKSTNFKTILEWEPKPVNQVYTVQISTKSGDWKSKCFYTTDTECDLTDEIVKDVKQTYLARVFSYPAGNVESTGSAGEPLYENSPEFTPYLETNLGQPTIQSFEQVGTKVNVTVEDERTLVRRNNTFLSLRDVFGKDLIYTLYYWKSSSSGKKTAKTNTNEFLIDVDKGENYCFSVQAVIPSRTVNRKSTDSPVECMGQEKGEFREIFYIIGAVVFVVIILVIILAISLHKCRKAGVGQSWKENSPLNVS
Chain of tissue factor:FVIIa complex (TF:FVIIa) (P08709 61-466 limits assumed, chain 2 of 2, further chain): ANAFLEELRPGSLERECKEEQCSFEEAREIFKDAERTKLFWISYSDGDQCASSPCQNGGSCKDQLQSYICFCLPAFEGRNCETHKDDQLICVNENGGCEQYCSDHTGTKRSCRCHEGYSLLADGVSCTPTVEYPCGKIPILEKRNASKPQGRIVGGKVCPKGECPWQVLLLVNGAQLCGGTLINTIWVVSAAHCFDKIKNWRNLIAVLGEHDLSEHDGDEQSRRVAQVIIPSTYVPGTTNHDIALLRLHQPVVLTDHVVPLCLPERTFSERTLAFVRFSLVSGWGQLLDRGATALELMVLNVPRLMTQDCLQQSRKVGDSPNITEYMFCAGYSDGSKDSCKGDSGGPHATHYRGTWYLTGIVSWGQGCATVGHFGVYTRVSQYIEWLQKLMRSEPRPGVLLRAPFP

The substance “TFPI (source and species not stated; Examples 8, 12 and 45) (from UniProt P10646 29-304)” gave a rate of FXa generation at 4 minutes, extrinsic tenase (Xase) inhibition assay, 1 nM TFPI of 70%.
